From patent publication US20190085095A1 (SHIRE HUMAN GENETIC THERAPIES, published 2019)
Changes are numbered by the printed parent chain. Names and notes keep the numbering of the source. Values joined by “and” are separate entries in the source; they are usually repeats but may differ in a detail not shown here. Equal entries are not always repeated. Blank lines part the entries; values can stand above or below the binder they belong to.

How the values were obtained:
[1] = molecular target: T1, human complement component 5 (C5) (human, UniProt P01031 19-1676); assay: cell-based or functional assay
[2] = molecular target: T2, human neonatal Fc receptor (FcRn) (human, UniProt P55899 24-297; P61769 21-119); assay: Biacore, immobilized recombinant hFcRn, pH 5.5; pH 5.5
T2 construct: also called hFcRn; recombinant FcRn
Procedure: (§1) Kinetics of binding to immobilized recombinant FcRn was determined for mAbs at pH 7.4 and pH 5.5 in Biacore® assays.

[3] = molecular target: T1, human complement component 5 (C5); assay: Biacore; KD at pH 5.5 against KD at pH 7.4
Procedure: (§2) The kinetics of binding of purified human C5 (hC5) or hC5 in human serum to immobilized mAbs (via capture with anti-Fc antibodies) were measured by Biacore® assays over a pH range from 7.4 to 5.5. Binding was tested at pH 7.4, 7.0, 6.5, 6.0, and 5.5.

[4] = molecular target: T1, human complement component 5 (C5); assay: Biacore, mAb captured via anti-Fc, hC5, pH 5.5
Procedure: as §2

cynomolgus monkey C5 [5] = molecular target: T3, cynomolgus monkey C5 (cynomolgus monkey, UniProt A0A2K5U1T1 19-1676); assay: mean affinity for cC5, Biacore
T3 construct: also called cC5; cynomolgus C5

[6] = molecular target: T1, human complement component 5 (C5); assay: Biacore, pH 7.4, against Control 1
Procedure: as §2

[7] = molecular target: T1, human complement component 5 (C5); assay: Biacore, mAb captured via anti-Fc, hC5, pH 7.4
Procedure: as §2

FcγRIIIA = FcγRIIIA (UniProt P08637 17-208, limits assumed); assay: binding affinity to Fcγ receptor, method not stated; range 1000-31.25 nM
[8] = molecular target: T2, human neonatal Fc receptor (FcRn); assay: Biacore, immobilized recombinant hFcRn, pH 6.0; pH 6.0
Procedure: as §1

[9] = molecular target: T1, human complement component 5 (C5); assay: C5 binding affinity at pH 7.4; method not named in Example 2; pH 7.4; IgG2 Fc
[10] = molecular target: T1, human complement component 5 (C5); assay: C5 binding affinity at pH 5.5; method not named in Example 2
[11] = molecular target: T1, human complement component 5 (C5); assay: Kd at pH 5.5 against Kd at pH 7.4
African Green monkey C5 = molecular target: T4, African Green monkey C5 (African Green monkey); assay: Biacore, antibody captured, African Green monkey serum as analyte, pH 7.4; estimated, C5 titer assumed
T4 construct: also called C5 in African Green monkey serum
Procedure: (§3) Biacore® binding assays were performed with antibody captured on the chip and sera from 16 different mammalian species as the analyte that is flowed over the chip.

baboon C5 = molecular target: T5, baboon C5 (baboon); assay: Biacore, antibody captured, baboon serum as analyte, pH 7.4; estimated, C5 titer assumed
T5 construct: also called C5 in baboon serum
Procedure: as §3

[12] = molecular target: T2, human neonatal Fc receptor (FcRn); assay: Biacore, immobilized recombinant hFcRn, pH 6.0
Procedure: as §1

[13] = molecular target: T2, human neonatal Fc receptor (FcRn); assay: Biacore, immobilized recombinant hFcRn, pH 7.4; range 2000-15.6 nM
Procedure: as §1

FcγRI = FcγRI (UniProt P12314 16-288, limits assumed); assay: binding affinity to Fcγ receptor, method not stated; range 62.5-0.48 nM
[14] = molecular target: T1, human complement component 5 (C5); assay: Biacore, antibody captured, human serum as analyte, pH 7.4
Procedure: as §3

CD-1 mouse C5 = molecular target: T6, CD-1 mouse C5 (CD-1 mouse, UniProt P06684 19-1680); assay: Biacore, antibody captured, CD-1 mouse serum as analyte, pH 7.4; estimated, C5 titer assumed
T6 construct: also called C5 in CD-1 mouse serum; CD1 mice
Procedure: as §3

[15] = molecular target: T2, human neonatal Fc receptor (FcRn); assay: Biacore, immobilized recombinant hFcRn, pH 7.4; range 50-0.39 nM; pH 7.4; concentration range 50-0.39 nM
Procedure: as §1

cynomolgus monkey C5 [16] = molecular target: T3, cynomolgus monkey C5; assay: KD for cC5 of Antibody B against that of Control 1
[17] = molecular target: T1, human complement component 5 (C5); assay: Biacore, antibody captured, purified C5, pH 7.4
cynomolgus monkey C5 [18] = molecular target: T3, cynomolgus monkey C5; assay: Biacore, pH 7.4, cynomolgus against human (FIG. 8G)
Procedure: as §3
To validate the binding as specific to C5, pull-down experiments were performed on sera from cynomolgus monkeys. Size exclusion chromatography was used to purify the resulting cynomolgus C5, which was also used to reconfirm binding on biacore.

[19] = molecular target: T1, human complement component 5 (C5); assay: Biacore, mAb captured via anti-Fc, purified hC5, pH 7.4
Procedure: (§4) Binding of hC5 to immobilized mAbs (via capture with anti-Fc antibodies) were measured by Biacore® assays at 7.4 and pH 5.5.

[20] = molecular target: T1, human complement component 5 (C5); assay: Biacore, mAb captured via anti-Fc, purified hC5, pH 5.5
Procedure: as §4

rhesus monkey C5 = molecular target: T7, rhesus monkey C5 (rhesus monkey, UniProt F7GHV1 19-1676); assay: Biacore, antibody captured, rhesus serum as analyte, pH 7.4; estimated, C5 titer assumed
T7 construct: also called C5 in rhesus serum
Procedure: as §3

[21] = molecular target: T2, human neonatal Fc receptor (FcRn); assay: Biacore, immobilized recombinant hFcRn, pH 5.5
Procedure: as §1

cynomolgus monkey C5 [22] = molecular target: T3, cynomolgus monkey C5; assay: Biacore, antibody captured, cynomolgus serum as analyte, pH 7.4
Procedure: as §3

[23] = molecular target: T1, human complement component 5 (C5); assay: C5 binding affinity at pH 7.4; method not named in Example 2

FcγRI, sequence (P12314 16-288 limits assumed): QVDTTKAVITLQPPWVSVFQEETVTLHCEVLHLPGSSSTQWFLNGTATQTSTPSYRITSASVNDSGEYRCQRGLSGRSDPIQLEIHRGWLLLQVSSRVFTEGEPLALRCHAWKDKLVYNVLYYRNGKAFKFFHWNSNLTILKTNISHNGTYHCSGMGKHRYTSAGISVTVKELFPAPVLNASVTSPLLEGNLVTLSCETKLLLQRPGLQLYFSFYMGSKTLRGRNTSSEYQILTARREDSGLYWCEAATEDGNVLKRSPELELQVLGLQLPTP
FcγRIIIA, sequence (P08637 17-208 limits assumed): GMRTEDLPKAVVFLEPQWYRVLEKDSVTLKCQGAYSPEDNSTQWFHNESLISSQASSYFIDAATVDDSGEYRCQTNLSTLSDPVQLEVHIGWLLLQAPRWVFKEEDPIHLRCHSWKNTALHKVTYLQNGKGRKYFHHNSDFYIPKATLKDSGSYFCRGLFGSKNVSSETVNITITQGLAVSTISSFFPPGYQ
T7 sequence (F7GHV1 entry or part of it): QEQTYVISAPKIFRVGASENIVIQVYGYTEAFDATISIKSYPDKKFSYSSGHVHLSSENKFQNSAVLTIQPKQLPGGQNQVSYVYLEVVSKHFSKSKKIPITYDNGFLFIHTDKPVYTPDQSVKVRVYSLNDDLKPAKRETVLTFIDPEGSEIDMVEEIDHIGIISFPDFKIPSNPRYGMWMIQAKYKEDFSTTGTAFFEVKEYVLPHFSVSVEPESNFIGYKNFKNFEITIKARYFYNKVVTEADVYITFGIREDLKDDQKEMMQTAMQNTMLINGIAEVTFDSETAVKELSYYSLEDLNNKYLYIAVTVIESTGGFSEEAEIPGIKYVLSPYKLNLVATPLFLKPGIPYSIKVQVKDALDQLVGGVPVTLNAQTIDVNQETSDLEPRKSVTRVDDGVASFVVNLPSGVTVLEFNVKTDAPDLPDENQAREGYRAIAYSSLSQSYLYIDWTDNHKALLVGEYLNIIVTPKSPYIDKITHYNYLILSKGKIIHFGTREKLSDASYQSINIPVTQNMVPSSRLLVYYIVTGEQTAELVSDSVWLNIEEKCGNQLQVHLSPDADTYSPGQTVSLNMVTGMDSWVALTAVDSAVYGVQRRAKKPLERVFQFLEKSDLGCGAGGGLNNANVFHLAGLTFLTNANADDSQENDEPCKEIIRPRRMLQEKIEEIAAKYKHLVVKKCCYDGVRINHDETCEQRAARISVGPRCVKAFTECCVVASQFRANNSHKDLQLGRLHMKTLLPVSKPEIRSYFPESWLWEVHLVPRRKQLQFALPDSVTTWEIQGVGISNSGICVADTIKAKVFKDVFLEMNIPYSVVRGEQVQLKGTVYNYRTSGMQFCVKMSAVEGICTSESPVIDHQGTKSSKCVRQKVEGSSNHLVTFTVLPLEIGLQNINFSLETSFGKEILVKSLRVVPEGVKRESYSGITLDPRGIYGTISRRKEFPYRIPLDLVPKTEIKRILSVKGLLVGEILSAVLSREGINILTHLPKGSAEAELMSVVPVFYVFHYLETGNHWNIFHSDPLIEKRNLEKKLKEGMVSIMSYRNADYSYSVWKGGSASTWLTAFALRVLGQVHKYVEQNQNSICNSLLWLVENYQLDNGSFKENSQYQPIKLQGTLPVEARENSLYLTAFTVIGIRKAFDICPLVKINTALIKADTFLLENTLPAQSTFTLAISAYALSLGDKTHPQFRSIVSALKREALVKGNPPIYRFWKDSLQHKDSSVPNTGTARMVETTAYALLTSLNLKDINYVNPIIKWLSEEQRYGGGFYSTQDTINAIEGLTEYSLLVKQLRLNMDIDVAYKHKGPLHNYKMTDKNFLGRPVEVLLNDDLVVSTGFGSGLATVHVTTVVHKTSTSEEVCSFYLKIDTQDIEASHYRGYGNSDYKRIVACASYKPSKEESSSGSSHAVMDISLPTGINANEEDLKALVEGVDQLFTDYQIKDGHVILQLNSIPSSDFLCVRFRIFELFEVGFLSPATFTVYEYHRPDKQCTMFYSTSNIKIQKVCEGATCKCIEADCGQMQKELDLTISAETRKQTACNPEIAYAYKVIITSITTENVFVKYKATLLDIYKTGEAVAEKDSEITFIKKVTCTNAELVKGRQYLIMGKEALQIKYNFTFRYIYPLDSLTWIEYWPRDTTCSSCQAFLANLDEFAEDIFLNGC
T6 sequence (P06684 19-1680 limits assumed): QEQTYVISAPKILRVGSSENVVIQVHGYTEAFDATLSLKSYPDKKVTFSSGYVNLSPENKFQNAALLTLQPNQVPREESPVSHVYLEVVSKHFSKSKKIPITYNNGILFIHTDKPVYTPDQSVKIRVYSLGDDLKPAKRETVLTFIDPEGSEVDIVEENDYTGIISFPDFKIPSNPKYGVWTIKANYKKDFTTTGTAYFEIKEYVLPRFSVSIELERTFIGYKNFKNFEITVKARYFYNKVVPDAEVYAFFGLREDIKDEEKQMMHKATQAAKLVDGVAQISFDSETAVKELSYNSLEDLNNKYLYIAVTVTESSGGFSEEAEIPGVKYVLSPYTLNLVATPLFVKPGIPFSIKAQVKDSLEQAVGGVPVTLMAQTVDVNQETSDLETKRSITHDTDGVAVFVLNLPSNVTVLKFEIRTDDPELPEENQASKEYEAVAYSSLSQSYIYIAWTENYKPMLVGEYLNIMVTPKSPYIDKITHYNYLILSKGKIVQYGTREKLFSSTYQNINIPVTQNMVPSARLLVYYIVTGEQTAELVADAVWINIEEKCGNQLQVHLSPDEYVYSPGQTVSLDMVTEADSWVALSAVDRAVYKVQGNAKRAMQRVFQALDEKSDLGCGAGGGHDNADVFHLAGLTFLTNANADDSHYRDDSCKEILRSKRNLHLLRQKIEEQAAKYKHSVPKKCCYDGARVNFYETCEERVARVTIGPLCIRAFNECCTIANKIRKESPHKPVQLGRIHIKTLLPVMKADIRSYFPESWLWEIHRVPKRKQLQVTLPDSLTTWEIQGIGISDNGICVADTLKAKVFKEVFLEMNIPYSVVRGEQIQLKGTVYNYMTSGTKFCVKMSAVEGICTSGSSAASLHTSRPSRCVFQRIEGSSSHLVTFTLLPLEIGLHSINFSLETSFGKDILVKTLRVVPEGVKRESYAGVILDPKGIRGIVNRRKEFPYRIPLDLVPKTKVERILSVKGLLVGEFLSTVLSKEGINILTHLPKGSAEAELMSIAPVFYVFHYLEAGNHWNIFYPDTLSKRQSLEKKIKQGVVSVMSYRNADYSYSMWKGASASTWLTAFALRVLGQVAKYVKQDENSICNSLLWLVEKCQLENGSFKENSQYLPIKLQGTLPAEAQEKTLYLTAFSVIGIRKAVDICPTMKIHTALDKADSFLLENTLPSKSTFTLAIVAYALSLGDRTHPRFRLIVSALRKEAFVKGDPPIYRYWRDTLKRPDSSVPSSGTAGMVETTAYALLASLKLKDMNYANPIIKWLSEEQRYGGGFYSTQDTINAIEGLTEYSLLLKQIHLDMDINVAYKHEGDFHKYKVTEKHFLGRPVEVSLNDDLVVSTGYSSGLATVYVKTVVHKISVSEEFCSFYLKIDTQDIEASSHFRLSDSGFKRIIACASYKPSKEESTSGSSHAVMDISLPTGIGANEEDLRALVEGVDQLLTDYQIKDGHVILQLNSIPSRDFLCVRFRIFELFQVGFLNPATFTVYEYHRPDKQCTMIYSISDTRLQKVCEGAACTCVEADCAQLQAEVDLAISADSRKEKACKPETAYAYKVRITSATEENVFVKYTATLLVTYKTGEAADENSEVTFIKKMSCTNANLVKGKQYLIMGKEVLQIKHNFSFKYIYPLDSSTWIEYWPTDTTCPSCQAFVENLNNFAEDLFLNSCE

B1: Antibody A (antibody, human IgG1, kappa, L234A L235A)
heavy: not shown
light: DIQMTQSPSSLSASVGDRVTITCGAHENIYHALNWYQQKPGKAPKLLIYGATNLAHGVPSRFSGSGSGTDFTLTISSLQPEDFATYYCQNVLNTPLTFGQGTKVEIKRTVAAPSVFIFPPSDEQLKSGTASVVCLLNNFYPREAKVQWKVDNALQSGNSQESVTEQDSKDSTYSLSSTLTLSKADYEKHKVYACEVTHQGLSSPVTKSFNRGEC
notes: IgG1 with L234A, L235A
IC50 for inhibition of antibody-sensitized lysis of chicken RBC by human serum [1]: 3 µg/mL | Kd [2]: 5.9 nM | KD fold-change [3]: 332 fold | Kd [4]: 113 nM | Kd (cynomolgus monkey C5 [5]): 1.65 nM | fold reduction of the C5 binding affinity at pH 7.4 as compared to Control 1 [6]: < 3 fold | Kd [7]: 0.34 nM | Kd (FcγRIIIA): 7420 nM | Kd [8]: 11.3 nM

B4: Antibody B (antibody, human IgG1, kappa, L234A L235A)
heavy: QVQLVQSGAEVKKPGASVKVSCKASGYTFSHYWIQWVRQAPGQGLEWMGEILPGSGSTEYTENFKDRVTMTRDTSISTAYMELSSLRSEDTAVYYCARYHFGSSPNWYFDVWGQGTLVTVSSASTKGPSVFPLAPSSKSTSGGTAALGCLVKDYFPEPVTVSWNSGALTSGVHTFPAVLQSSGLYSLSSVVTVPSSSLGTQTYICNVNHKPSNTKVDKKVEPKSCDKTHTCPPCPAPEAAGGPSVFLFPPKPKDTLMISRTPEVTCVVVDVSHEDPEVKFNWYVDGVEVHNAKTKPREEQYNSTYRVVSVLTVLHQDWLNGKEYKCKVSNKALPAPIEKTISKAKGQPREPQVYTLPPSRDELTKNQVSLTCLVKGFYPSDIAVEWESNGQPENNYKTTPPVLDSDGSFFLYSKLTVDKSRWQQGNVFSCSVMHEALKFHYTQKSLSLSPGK
light: B1 light
notes: IgG1 with L234A, L235A, H433K, N434F
Kd [12]: 0.24 nM | Kd [13]: 191 nM | Kd (African Green monkey C5): 3.2 nM | Kd (FcγRI): 94 nM and 75 nM and 62 nM | IC50 for inhibition of antibody-sensitized lysis of chicken RBC by human serum [1]: 3 µg/mL | Kd [14]: 0.33 nM | KD fold-change [3]: 414 fold | Kd [4]: 145 nM | Kd (CD-1 mouse C5): 5.3 nM | fold reduction of the C5 binding affinity at pH 7.4 as compared to Control 1 [6]: < 3 fold | Kd [7]: 0.35 nM | Kd [15]: 108 nM | fold improvement in affinity against Control 1 (cynomolgus monkey C5 [16]): 8 fold | Kd [17]: 0.34 nM | fold lower affinity than for human C5 (cynomolgus monkey C5 [18]): 5.7 fold | fold greater affinity than BNJ441 at pH 7.4 [19]: 3 fold | fold lower affinity than BNJ441 at pH 5.5 [20]: 10 fold | Kd (FcγRIIIA): 9620 nM | Kd (rhesus monkey C5): 3.19 nM | Kd [21]: 0.13 nM | Kd (cynomolgus monkey C5 [22]): 1.9 nM | Kd (baboon C5): 2.6 nM

B5: Antibody C (antibody, human IgG1, kappa, L234A L235A, V domains shown)
VH: QVQLVQSGAEVKKPGASVKVSCKASGYTFSHYWIQWVRQAPGQGLEWMGEILPGSGSTEYTENFKDRVTMTRDTSISTAYMELSSLRSEDTAVYYCARYHFGSSPNWYFDVWGQGTLVTVSS
VL: DIQMTQSPSSLSASVGDRVTITCGAHENIYGALNWYQQKPGKAPKLLIYGATNLAHGVPSRFSGSGSGTDFTLTISSLQPEDFATYYCQNVLNTPLTFGQGTKVEIKR
notes: as for B4
KD fold-change [3]: 142 fold | Kd [4]: 37 nM | fold reduction of the C5 binding affinity at pH 7.4 as compared to Control 1 [6]: < 3 fold | Kd [7]: 0.26 nM

The remaining lines, values ahead:

Kd [9]: 1.04 nM | Kd [10]: 13.9 nM | Fold change in Kd (pH 5.5 vs. pH 7.4) [11]: 13.4 fold
B2: Antibody D (antibody, human IgG2, kappa)
heavy: QVQLVQSGAEVKKPGASVKVSCKASGYIFSNYWIQWVRQAPGQGLEWMGEILPGSGSTEYTENFKDRVTMTRDTSTSTVYMELSSLRSEDTAVYYCARYHFGSSPNWYFDVWGQGTLVTVSSASTKGPSVFPLAPCSRSTSESTAALGCLVKDYFPEPVTVSWNSGALTSGVHTFPAVLQSSGLYSLSSVVTVPSSNFGTQTYTCNVDHKPSNTKVDKTVERKCCVECPPCPAPPVAGPSVFLFPPKPKDTLMISRTPEVTCVVVDVSHEDPEVQFNWYVDGVEVHNAKTKPREEQFNSTFRVVSVLTVVHQDWLNGKEYKCKVSNKGLPAPIEKTISKTKGQPREPQVYTLPPSREEMTKNQVSLTCLVKGFYPSDIAVEWESNGQPENNYKTTPPMLDSDGSFFLYSKLTVDKSRWQQGNVFSCSVMHEALHNHYTQKSLSLSPGK
light: B1 light with H26S, H31G, H56D, N93H
notes: IgG2 Fc constant region; also called F100H heavy / N93H light on IgG2 backbone

Kd (African Green monkey C5): 27.5 nM | Kd [2]: 125 nM | Kd (baboon C5): 16.2 nM | Kd [8]: 125 nM
B3: Control 1 (antibody, human IgG2, kappa)
heavy: QVQLVQSGAEVKKPGASVKVSCKASGYIFSNYWIQWVRQAPGQGLEWMGEILPGSGSTEYTENFKDRVTMTRDTSTSTVYMELSSLRSEDTAVYYCARYFFGSSPNWYFDVWGQGTLVTVSSASTKGPSVFPLAPCSRSTSESTAALGCLVKDYFPEPVTVSWNSGALTSGVHTFPAVLQSSGLYSLSSVVTVPSSNFGTQTYTCNVDHKPSNTKVDKTVERKCCVECPPCPAPPVAGPSVFLFPPKPKDTLMISRTPEVTCVVVDVSQEDPEVQFNWYVDGVEVHNAKTKPREEQFNSTYRVVSVLTVLHQDWLNGKEYKCKVSNKGLPSSIEKTISKAKGQPREPQVYTLPPSQEEMTKNQVSLTCLVKGFYPSDIAVEWESNGQPENNYKTTPPVLDSDGSFFLYSRLTVDKSRWQEGNVFSCSVMHEALHNHYTQKSLSLSLGK
light: B1 light with H26S, H31G, H56D
notes: IgG2 and IgG4 (IgG 2-4); produced in CHO cells; also called control antibody

Kd [23]: 0.72 nM | Kd [10]: 34.9 nM | Fold change in Kd (pH 5.5 vs. pH 7.4) [11]: 48.5 fold
B6: Antibody E (antibody, human IgG1, kappa, L234A L235A)
heavy: not shown
light: B1 light with H26S, H31G, H56D, N93H
notes: IgG1 Fc constant region; also called F100H heavy / N93H light on IgG1 backbone
